Test results from the supplement of paper PMC12764529.
± gives the half width of the 95% confidence interval.

Legend:
[1] = folding stability dG unfold (combined trypsin and chymotrypsin); higher = more stable
Procedure, shortened: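 Sequencing followed digestion of designed mini-proteins with trypsin and chymotrypsin, each at 11 concentrations in threefold dilutions together with a no-protease condition. The mini-proteins were under 80 residues, had no cysteine, sat in a PA-tagged cDNA display construct, and were kept only if AlphaFold2 dimer inter-PAE was above 15. From the counts, Bayesian fitting gave K50, and unfolding free energy was derived against a sequence-predicted unfolded-state K50 and a shared folded-state K50, per protease or combined.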

[2] = folding stability dG unfold from trypsin proteolysis; higher = more stable
Protocol: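 Folding stability of de novo designed mini-proteins (<80 aa, no Cys; designed by TrROS, TrMRF, ProteinMPNN and the joint model) was measured by cDNA display proteolysis with trypsin and chymotrypsin. Each protease was used at 11 concentrations in a threefold dilution series plus a no-protease condition. K50 was inferred by Bayesian fitting of sequencing counts, and dG unfold was derived against a sequence-predicted unfolded-state K50 (Tsuboyama et al. method). Sequences shown include variable-length N-terminal GS-type padding (SAGGSAGG...) inside a display construct carrying a PA tag. Rows were kept only if the AF2 dimer inter-PAE was >15, to exclude likely homo-oligomers.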

Sequence | folding stability dG unfold [1] [kcal/mol] | folding stability dG unfold [2] [kcal/mol]
SAGGSAGGSAGGDSSAPKPVIVEEGSVILEVKRDPKHGVITILSRNPLGGELITYEIPRSAGGSAGGSAGGS [r10_427_JUSTAS] | < -1 | -0.563 ± 0.28
SAGGSAGGSAGGEESRRVTVTETVYPVYPGVGIIRVTRTVTTPDATTTSTTLVFVPPGLPSAGGSAGGSAGG [r17_465_JUSTAS] | < -1 | -0.433 ± 0.24
SAGGSAGGSAGGEILIFDDNGKRIIVIPIPPENRYRVVVIHENTGIPEVKEAKLEEVLSSAGGSAGGSAGGS [r10_482_TrMRF] | 0.104 ± 0.28 | 0.92 ± 0.055
SAGGSAGGSAGGEPVSFLVKTPEDRWYPAVAIPETGEVLVEVPNEVRVLPADAEFEVSPASAGGSAGGSAGG [r7_434_TrMRF] | < -1 | -0.0127 ± 0.11
SAGGSAGGSAGGETVVEEDPAAGTTVVTYHEPLPTPSTRENVTTLTHDPSSSAATTTESSAGGSAGGSAGGS [r10_1041_JUSTAS] | < -1 | -1.14 ± 0.27
SAGGSAGGSAGGGENVTTEEKVLEVSYDPSKNSYSTLVKVTVKYPNGTTEEFEVVEEKLSAGGSAGGSAGGS [r10_1214_JUSTAS] | -0.0354 ± 0.21 | 0.334 ± 0.042
SAGGSAGGSAGGGKDVPVIAVPAGDEEAAEEFARRLVAELERRTGKPAGDIPVDFVEVESAGGSAGGSAGGS [r10_1216_TrMRF] | -0.886 ± 0.84 | -0.243 ± 0.2
SAGGSAGGSAGGGMKVVIPKEEAEKKGLTEAKLKEIEEKLKAKGIKVEIKLISSEEPELLSAGGSAGGSAGG [r7_972_JUSTAS] | < -1 | 0.136 ± 0.12
SAGGSAGGSAGGGMTVVPTLEFFPGTRLVVRPVVVRDAEGRVVEVEPEVTPLPPPTLSLLSAGGSAGGSAGG [r7_135_JUSTAS] | < -1 | -0.353 ± 0.17
SAGGSAGGSAGGGSSLVDPEGKPLPPRPEVVTTTGSYYSSLPGDGYYHLEEPVVEPVYPESAGGSAGGSAGG [r7_572_JUSTAS] | -0.198 ± 0.14 | 0.339 ± 0.051
SAGGSAGGSAGGKKTIWIPVKIEPVPDGVRIKFPDGNPIIIPPNHKVEHTPGWMRITLDSAGGSAGGSAGGS [r10_305_TrROS] | -0.908 ± 0.86 | -0.293 ± 0.18
SAGGSAGGSAGGKPKITITQEQHPNGMHRVNVRNPNGKPIGEVPFDSPQQLEEAKEFLLDSAGGSAGGSAGG [r7_476_TrROS] | < -1 | -0.608 ± 0.3
SAGGSAGGSAGGKVLVRFPTGEVPEVVEIDVPFEAGDPEKAKEIADELLAKGAEEVVLEDSAGGSAGGSAGG [r11_196_TrMRF] | -0.328 ± 0.35 | 0.117 ± 0.056
SAGGSAGGSAGGMEKKLTLVTTRTPEGGSETILVDDSDPEKVRAELEEAGWTITETTSSSAGGSAGGSAGGS [r10_882_JUSTAS] | < -1 | -0.793 ± 0.95
SAGGSAGGSAGGMENGKIEIYKKEKDTFIAKINNGDKVIIIEKIKSIEELKEALIELGYGSAGGSAGGSAGG [r7_91_TrMRF] | 0.136 ± 0.17 | 0.527 ± 0.029
SAGGSAGGSAGGMIEIEVEKEEEVKELAEKFGFKVEAEKIEDGKIIAKIEFIPEEELKKSAGGSAGGSAGGS [r10_218_TrMRF] | < -1 | -0.839 ± 0.24
SAGGSAGGSAGGMKPGEPVEIKIPVPGNGKKIPIEIPVGMPPEQARKFAKEIAEELEKNHSAGGSAGGSAGG [r7_957_TrROS] | < -1 | -0.916 ± 0.2
SAGGSAGGSAGGMPVEVTEVASVTTLPNGTTKITIKTPTGTVTFDDPSKIPSSILKLLSSAGGSAGGSAGGS [r10_748_JUSTAS] | 0.211 ± 0.1 | 0.703 ± 0.014
SAGGSAGGSAGGMPVVVINTPSEEEAEKEKAKLEEDPEYKDGPINFIYIPPGTLPENVPLSAGGSAGGSAGG [r7_976_JUSTAS] | < -1 | 0.286 ± 0.072
SAGGSAGGSAGGMTETLDFNGEKVVVTELPPTNTYQVTTTTPGTGVPTTTAARKEEVLTSAGGSAGGSAGGS [r10_482_JUSTAS] | -0.177 ± 0.28 | 0.443 ± 0.045
SAGGSAGGSAGGMTITLEFTTEEEVEAYAKEIGATKVEVTREKTETPEERIKATIEKPGSAGGSAGGSAGGS [r10_494_JUSTAS] | < -1 | -0.365 ± 0.74

Sequence | folding stability dG unfold [1] [kcal/mol] | folding stability dG unfold [2] [kcal/mol]
SAGGSAGGSAGGMVVTVKVGDETIEIDTETGTATVTPPATGTTTTVPASEVEPITPELLSAGGSAGGSAGGS [r10_709_JUSTAS] | 0.123 ± 0.065 | 0.945 ± 0.076
SAGGSAGGSAGGMYVIKITMGDRPRSIMVPPDNPEEIKNQLRDLGYNIKEISVERFPPGSAGGSAGGSAGGS [r10_405_TrROS] | -0.787 ± 0.56 | -0.749 ± 0.61
SAGGSAGGSAGGPKTVTISGGPLEDLLEKLDNMPPDDTITIHHPGGYYTVKVENDKIKIVSAGGSAGGSAGG [r7_560_TrROS] | -0.69 ± 0.22 | -0.416 ± 0.13
SAGGSAGGSAGGPPEITVEHHPPNGYMTLTIPDGRPIEIPMPPNRPPSDVKNRAKDLIKSAGGSAGGSAGGS [r10_33_TrROS] | < -1 | -0.457 ± 0.39
SAGGSAGGSAGGRMYPITFPGKTIEDIEEEIEELPPNYQINIDHDENGHMKVWIMPPDDFSAGGSAGGSAGG [r7_662_TrROS] | < -1 | -0.422 ± 0.33
SAGGSAGGSAGGRTIHINGATPERIIKWLKEWPPDEPVEIHYHGPNNKHREIPIDELKKSAGGSAGGSAGGS [r10_732_TrROS] | -0.669 ± 0.38 | -0.0271 ± 0.1
SAGGSAGGSAGGSALDPSAKVTVDRGDGKLVAVHVYPPGGKPVVILLPEEDAKKILEEVSAGGSAGGSAGGS [r4_16_TrMRF] | -0.726 ± 0.44 | 0.416 ± 0.031
SAGGSAGGSAGGSALDRPVPVLVTGSIPLDGKFEDALGAAKAIEEEFAPYGYIVLSDVHVSAGGSAGGSAGG [r17_197_TrMRF] | -0.0552 ± 0.12 | 0.297 ± 0.048
SAGGSAGGSAGGSATVINIPASSLSEEEIEALAKALEEEDPSIKGPKIEKGDGTYTIVQSAGGSAGGSAGGS [r4_330_JUSTAS] | -0.533 ± 0.23 | 0.553 ± 0.046
SAGGSAGGSAGGSDELLKELAQENGMKVTAEPMPEEGHFNIEVQSPNGKPIEIEIPLDDSAGGSAGGSAGGS [r4_121_TrROS] | -0.0556 ± 0.26 | 0.128 ± 0.15
SAGGSAGGSAGGSGAEEAAKAVREAFPELGVPILVEVGYIPGTKELPVRVYIPSTRLELSAGGSAGGSAGGS [r4_312_TrMRF] | < -1 | -0.294 ± 0.055
SAGGSAGGSAGGSGMPQPTTVLTTEYYPPGVVVKKDIVYSPSGGAEEVEVSFYPSPELLSAGGSAGGSAGGS [r4_57_JUSTAS] | < -1 | -1.08 ± 0.2
SAGGSAGGSAGGSGNFDKDGNKLTVYYPNTKKPVTIDFPVEDIFEFIKNLPPNVAKVDASAGGSAGGSAGGS [r4_282_TrMRF] | -0.869 ± 0.4 | -0.201 ± 0.049
SAGGSAGGSAGGSGSMVVEKVSPEPNVTKTIFFEPPEEGLVITVETLEGDTWSSQIILQSAGGSAGGSAGGS [r4_484_JUSTAS] | -0.0129 ± 0.3 | 0.657 ± 0.097
SAGGSAGGSAGGSIEIDVNPEAGQLKIEIEMPMPNPNGKPRGPMRMEQEFRIDDPEDIKSAGGSAGGSAGGS [r4_10_TrROS] | < -1 | -0.641 ± 0.33
SAGGSAGGSAGGSMAVPQTVEVEAGAKPILVTTYRLPPDGAVVRIEYPGPAVVLEEELESAGGSAGGSAGGS [r10_630_JUSTAS] | < -1 | -0.445 ± 0.2
SAGGSAGGSAGGSMIVDTKVPENSVAYTPDGKKIGPEEVKKALEEGLGYIGSTPVPPGLSAGGSAGGSAGGS [r4_47_JUSTAS] | -0.835 ± 0.31 | 0.127 ± 0.029
SAGGSAGGSAGGSMKVEPLPHPDRPVTVETTPDSITVTDPANPPATTTFSSSSTVSVDSSAGGSAGGSAGGS [r4_321_JUSTAS] | -0.505 ± 0.44 | -0.122 ± 0.078
SAGGSAGGSAGGSMPKPKVIKVPVDPNVSKEEVAKEVLPKTGLNVESIEESEDVLYVLNSAGGSAGGSAGGS [r4_469_JUSTAS] | < -1 | -1.11 ± 0.38
SAGGSAGGSAGGSNIILIPAKPGEEFKIKINGRPLKIQRDKDKPGYIMIEFPDGQWQPISAGGSAGGSAGGS [r4_488_TrROS] | -0.174 ± 0.24 | -0.041 ± 0.2
SAGGSAGGSAGGSPEVVPVDHPDRELLLVRFPDSVVLTDPSAPGASRTFPADTDVVVDASAGGSAGGSAGGS [r4_321_TrMRF] | < -1 | -1.37 ± 0.41
